pKd: −log10 of the molar value.
Biological target: chicken F-actin (chicken) (UniProt P68139)
Assay: co-sedimentation

| pKd | Substance |
| --- | --- |
| 5.70 | Drosophila indirect flight muscle myosin isoform (IFI) subfragment-1 (S1), S532P mutant (domain or fragment) |
| 5.90 | Drosophila indirect flight muscle myosin isoform (IFI) subfragment-1 (S1), wild-type control (domain or fragment) |
